Source: the Human Domainome abundance scans (Beltran et al. 2025)
± gives the uncertainty stated by the source.

B1: Nuclear receptor subfamily 4 group A member 2, residues 260 to 336; numbered along this chain, P43354 (parent)
chain: EGLCAVCGDNAACQHYGVRTCEGCKGFFKRTVQKNAKYVCLANKNCPVDKRRRNRCQYCRFQKCLAVGMVKEVVRTD

Variants of: B1
Assay: abundance fitness (aPCA) (normalised: wild type 0, dead -1); higher = more abundant; growth selection in yeast, the domain comes from the species named
Settings: Homo sapiens

Variant	abundance fitness
R19K	0.05 ± 0.083
R19Y	-0.12 ± 0.19
R19C	0.009 ± 0.092
R19Q	-0.053 ± 0.074
R19V	0.005 ± 0.062
R19W	-0.053 ± 0.077
R19I	-0.03 ± 0.12
R19E	0.064 ± 0.073
R19P	0.037 ± 0.098
R19L	0.026 ± 0.06
R19M	-0.175 ± 0.089
R19F	0.14 ± 0.13
R19S	0.034 ± 0.063
R19A	0.015 ± 0.056
R19N	0.182 ± 0.15
R19H	0.137 ± 0.11
R19D	-0.202 ± 0.27
Q33L	-0.049 ± 0.25
Q33K	-0.035 ± 0.23
Q33R	-0.252 ± 0.37
Q14L	0.221 ± 0.073
Q14T	-0.013 ± 0.15
Q14E	-0.129 ± 0.095
Q14N	-0.088 ± 0.21

Variant	abundance fitness
Q14Y	0.572 ± 0.32
Q14A	0.207 ± 0.089
Q14V	0.095 ± 0.077
Q14K	0.256 ± 0.1
Q14W	0.017 ± 0.088
Q14G	0.005 ± 0.07
Q14D	-0.189 ± 0.1
Q14S	0.117 ± 0.14
Q14M	0.199 ± 0.079
Q14R	-0.061 ± 0.079
Q14P	-0.012 ± 0.097
Q14I	-0.211 ± 0.4
V18C	-0.263 ± 0.35
V18R	-0.29 ± 0.12
V18W	-0.484 ± 0.13
V18S	-0.121 ± 0.082
V18E	-0.044 ± 0.14
V18H	-0.387 ± 0.24
V18A	0.116 ± 0.12
V18G	-0.112 ± 0.07
V18P	-0.11 ± 0.092
V18L	-0.15 ± 0.098
V18Q	-0.161 ± 0.12
V18F	-0.111 ± 0.11

Variant	abundance fitness
K25E	0.049 ± 0.1
K25T	-0.12 ± 0.17
K25M	0.082 ± 0.12
K25A	0.127 ± 0.11
K25F	-0.047 ± 0.36
K25P	-0.675 ± 0.3
K25G	0.101 ± 0.094
K25D	-0.017 ± 0.18
K25Q	-0.019 ± 0.12
K25Y	-0.503 ± 0.31
K25N	0.033 ± 0.36
K25V	0.046 ± 0.085
K25L	0.057 ± 0.098
K25W	-0.013 ± 0.13
K25R	0.079 ± 0.071
K25S	-0.031 ± 0.079
F27M	-0.584 ± 0.2
F27I	-0.705 ± 0.47
F27L	-0.431 ± 0.085
F27K	-0.691 ± 0.25
F27E	-0.959 ± 0.33
F27G	-0.99 ± 0.17
F27R	-0.975 ± 0.15
F27T	-1.04 ± 0.33

Variant	abundance fitness
F27Y	-0.846 ± 0.33
F27A	-1.06 ± 0.25
F27W	-0.126 ± 0.071
F27V	-0.934 ± 0.18
F27H	-0.624 ± 0.36
F27S	-1.12 ± 0.29
G23K	0.106 ± 0.19
G23E	-0.016 ± 0.47
G23Q	-0.208 ± 0.43
G23A	-0.136 ± 0.23
G23C	0.065 ± 0.27
G23I	0.017 ± 0.25
G23W	-0.029 ± 0.17
G23S	0.306 ± 0.21
K29I	0.214 ± 0.21
K29G	-0.178 ± 0.074
K29P	-0.126 ± 0.2
K29H	0.071 ± 0.17
K29W	-0.253 ± 0.19
K29T	-0.066 ± 0.16
K29M	0.296 ± 0.19
K29Q	-0.097 ± 0.12
K29Y	-0.344 ± 0.42
K29C	-0.239 ± 0.27

Variant	abundance fitness
K29D	0.11 ± 0.21
K29L	0.008 ± 0.078
K29A	0.014 ± 0.096
K29R	-0.123 ± 0.08
K29N	-0.138 ± 0.33
K29S	0.121 ± 0.11
A42K	0.629 ± 0.5
A42M	-0.208 ± 0.43
A42I	-0.183 ± 0.23
A42V	-0.09 ± 0.14
A42W	-0.305 ± 0.23
A42G	-0.09 ± 0.28
A42T	0.002 ± 0.13
A42S	0.048 ± 0.17
A42R	-0.255 ± 0.12
A42N	-0.452 ± 0.49
G17K	-0.346 ± 0.25
G17S	-0.371 ± 0.17
G17L	-0.133 ± 0.099
G17P	-0.841 ± 0.34
G17R	-0.173 ± 0.094
G17E	-0.116 ± 0.19
G17Q	0.044 ± 0.15
G17I	0.092 ± 0.4

Variant	abundance fitness
G17C	0.255 ± 0.26
G17M	-0.076 ± 0.12
G17W	-0.383 ± 0.33
G17T	-0.097 ± 0.11
G17H	-0.004 ± 0.33
G17V	-0.364 ± 0.14
K34G	0.05 ± 0.12
K34R	-0.243 ± 0.24
K34V	-0.037 ± 0.23
K34W	-0.227 ± 0.49
K34C	-0.033 ± 0.41
K34S	-0.051 ± 0.21
N35T	-0.137 ± 0.13
N35I	-0.127 ± 0.27
N35L	-0.085 ± 0.087
N35F	-0.089 ± 0.35
N35A	0.011 ± 0.068
N35R	-0.136 ± 0.088
N35S	-0.198 ± 0.085
N35D	0.118 ± 0.12
N35M	-0.173 ± 0.11
N35Q	-0.081 ± 0.1
N35Y	-0.139 ± 0.15
N35E	0.071 ± 0.094

Variant	abundance fitness
N35V	-0.487 ± 0.12
N35K	0.033 ± 0.12
N35C	0.141 ± 0.22
N35W	-0.407 ± 0.12
N35H	-0.13 ± 0.14
G26W	-0.388 ± 0.091
G26D	-0.062 ± 0.36
G26R	-0.174 ± 0.059
G26F	0.068 ± 0.18
G26A	-0.079 ± 0.088
G26S	-0.218 ± 0.089
G26C	-0.138 ± 0.11
G26T	0.051 ± 0.13
G26L	-0.137 ± 0.072
G26Q	-0.171 ± 0.071
G26E	-0.214 ± 0.15
G26M	-0.27 ± 0.18
G26V	-0.191 ± 0.096
G26H	0.16 ± 0.15
G26K	-0.352 ± 0.14
C21G	-0.46 ± 0.23
C21Q	0.041 ± 0.45
C21L	-0.725 ± 0.38
C21R	-0.981 ± 0.33

Variant	abundance fitness
C21A	-0.632 ± 0.33
H15R	-0.137 ± 0.053
H15W	0.013 ± 0.078
H15G	-0.082 ± 0.07
H15C	-0.097 ± 0.13
H15M	0.054 ± 0.1
H15Q	-0.318 ± 0.26
H15N	-0.012 ± 0.15
H15V	0.016 ± 0.072
H15A	-0.138 ± 0.084
H15P	0.104 ± 0.1
H15T	0.01 ± 0.12
H15L	-0.014 ± 0.07
H15K	-0.101 ± 0.25
H15E	-0.106 ± 0.091
H15S	-0.053 ± 0.075
R30C	-0.086 ± 0.19
R30I	-0.163 ± 0.23
R30V	-0.216 ± 0.086
R30F	-0.032 ± 0.36
R30S	-0.086 ± 0.092
R30W	-0.16 ± 0.096
R30N	-0.126 ± 0.17
R30G	-0.235 ± 0.072

Variant	abundance fitness
R30M	-0.148 ± 0.2
R30K	-0.016 ± 0.38
R30E	-0.105 ± 0.14
R30D	-0.032 ± 0.28
R30Q	-0.005 ± 0.13
R30T	-0.028 ± 0.13
T31R	-0.126 ± 0.22
T31V	-0.061 ± 0.33
T31Q	-0.167 ± 0.45
E22W	-0.208 ± 0.092
E22H	-0.02 ± 0.13
E22L	-0.067 ± 0.062
E22V	-0.213 ± 0.08
E22N	0.248 ± 0.25
E22I	-0.393 ± 0.2
E22P	-0.001 ± 0.094
E22Q	0.089 ± 0.19
E22D	0.049 ± 0.11
E22K	-0.067 ± 0.12
E22G	-0.142 ± 0.058
E22M	0.027 ± 0.2
E22Y	0.06 ± 0.25
E22F	-0.102 ± 0.16
E22S	-0.204 ± 0.11

Variant	abundance fitness
C40R	-0.799 ± 0.4
C40Y	0.296 ± 0.32
C40W	-0.761 ± 0.31
C24V	-0.802 ± 0.37
C24R	-0.954 ± 0.43
A36C	-0.017 ± 0.14
A36V	-0.023 ± 0.079
A36D	-0.019 ± 0.1
A36W	-0.057 ± 0.12
A36F	0.458 ± 0.19
A36K	-0.291 ± 0.26
A36G	-0.093 ± 0.071
A36E	-0.001 ± 0.11
A36Q	-0.085 ± 0.24
A36P	-0.081 ± 0.3
A36L	0.017 ± 0.097
A36M	-0.093 ± 0.24
A36S	-0.095 ± 0.1
V32C	-0.071 ± 0.36
V32L	-0.511 ± 0.41
V32A	0.211 ± 0.23
V32E	0.101 ± 0.45
V32H	-0.224 ± 0.27
V32R	0.256 ± 0.2

Variant	abundance fitness
V32K	-0.532 ± 0.26
V32T	0.036 ± 0.34
Y16A	0.049 ± 0.065
Y16I	-0.432 ± 0.38
Y16S	-0.1 ± 0.15
Y16G	-0.01 ± 0.07
Y16F	0.037 ± 0.13
Y16M	0.383 ± 0.46
Y16N	0.029 ± 0.14
Y16L	-0.081 ± 0.12
Y16K	-0.185 ± 0.12
Y16R	-0.051 ± 0.14
Y16P	-0.112 ± 0.15
Y16Q	0.025 ± 0.12
Y16W	-0.351 ± 0.17
Y16V	-0.185 ± 0.11
Y16T	-0.131 ± 0.14
V39Q	-0.244 ± 0.31
V39Y	-0.309 ± 0.29
V39L	-0.153 ± 0.2
V39W	0.017 ± 0.17
V39P	0.158 ± 0.23
V39R	-0.055 ± 0.097
V39S	0.071 ± 0.13

Variant	abundance fitness
V39E	-0.058 ± 0.16
V39A	-0.107 ± 0.17
V39G	-0.616 ± 0.18
N43L	-0.059 ± 0.14
N43M	-0.173 ± 0.27
N43I	-0.231 ± 0.24
N43E	-0.198 ± 0.16
N43A	0.245 ± 0.12
N43G	-0.202 ± 0.12
N43F	0.046 ± 0.46
L41Q	-0.248 ± 0.27
L41M	0.039 ± 0.11
L41H	-0.069 ± 0.37
L41S	-0.072 ± 0.16
L41E	0.064 ± 0.17
L41R	-0.064 ± 0.095
L41T	-0.08 ± 0.22
L41K	-0.167 ± 0.25
L41A	-0.025 ± 0.29
L41P	0.241 ± 0.27
L41V	0.022 ± 0.15
L41G	-0.109 ± 0.11
F28T	-0.049 ± 0.083
F28M	-0.176 ± 0.11

Variant	abundance fitness
F28W	-0.095 ± 0.066
F28C	-0.483 ± 0.36
F28S	-0.381 ± 0.095
F28L	-0.15 ± 0.077
F28Y	0.23 ± 0.26
F28P	-1.06 ± 0.35
F28I	-0.262 ± 0.18
F28D	-0.747 ± 0.5
F28N	-0.707 ± 0.43
F28E	-1.29 ± 0.45
F28K	-0.981 ± 0.33
F28V	-0.017 ± 0.054
F28A	-0.1 ± 0.063
F28Q	-0.484 ± 0.13
F28R	-0.75 ± 0.11
F28H	-0.114 ± 0.29
K37P	-0.008 ± 0.16
K37H	-0.124 ± 0.18
K37A	-0.197 ± 0.11
K37Q	-0.041 ± 0.17
K37M	0.11 ± 0.16
K37T	0.067 ± 0.15
K37G	-0.07 ± 0.073
K37Y	0.019 ± 0.21

Variant	abundance fitness
K37E	-0.177 ± 0.18
K37F	-0.362 ± 0.48
K37C	-0.134 ± 0.25
K37R	-0.099 ± 0.081
K37S	-0.213 ± 0.13
K37V	-0.118 ± 0.1
K37D	-0.07 ± 0.27
Y38H	0.149 ± 0.23
Y38C	-0.026 ± 0.49
Y38V	-0.057 ± 0.39
C13T	0.006 ± 0.098
C13R	-0.103 ± 0.075
C13V	0.046 ± 0.061
C13L	0.083 ± 0.083
C13I	-0.298 ± 0.43
C13Y	-0.138 ± 0.36
C13H	0.136 ± 0.31
C13W	0.082 ± 0.07
C13M	0.239 ± 0.08
C13S	0.092 ± 0.075
C13K	0.099 ± 0.11
T20S	0.204 ± 0.26
